Test results taken from the DeepSol protein solubility set.

test: soluble on expression in E. coli; label from the status in PepcDB or PDB records

Sequence | soluble on expression in E. coli
MFPNSILGHPPFTPNHQQHNNFFTLSPTVYSHQQLIDAQFNFQNADLSRAVSLQQLTYGNVSPIQTSASPLFRGRKRLSDEKNLPLDGKRQRFHSPHQEPTVVNQIVPLSGERRYSMPPLFHTHYVPDIVRCVPPFREIAFLEPREITLPEAKDKLSQQILELFETCQQQISDLKKKELCRTQLQREIQLLFPQSRLFLVGSSLNGFGTRSSDGDLCLVVKEEPCFFQVNQKTEARHILTLVHKHFCTRLSGYIERPQLIRAKVPIVKFRDKVSCVEFDLNVNNIVGIRNTFLLRTYAYLENRVRPLVLVIKKWASHHQINDASRGTLSSYSLVLMVLHYLQTLPEPILPSLQKIYPESFSPAIQLHLVHQAPCNVPPYLSKNESNLGDLLLGFLKYYATEFDWNSQMISVREAKAIPRPDGIEWRNKYICVEEPFDGTNTARAVHEKQKFDMIKDQFLKSWHRLKNKRDLNSILPVRAA | not soluble
MGSDKIHHHHHHMVIQMKFFNREKEIHEILSILEGEPNIIYFIYGPLNSGKTALIKHIIENKLSDDYKVFYINFRTYLISEKREFIEAIFTTKKDDFFEKIKDKSEVLNLITKGAKILTGIPIPEVEFDKLFEEKINDAFQYLNSILLEVKKSGKQPVLILDELQMIKDVVLNWQKYLLKELFQFLVSLTKEQHLCHVFCLSSDSLFIEYVYSAGELEGRAKYLLVDDFDKETALKFMDFLAKEILNKKLSDEDKELIYNYVGGKPVYIYSVIDEMRYRKLEDILNLMLKEETQKLKYFLKELDYIKPKVELKDEIIEIKKDDIINALKLFKENYEVSDDDIPEPVYIYLVKKNILFLNPIEGILKPQSFLIWNAIKKLLNGH | not soluble
MAHHHHHHMSLNAAAAADERSRKEMDRFQVERMAGQGTFGTVQLGKEKSTGMSVAIKKVIQDPRFRNRELQIMQDLAVLHHPNIVQLQSYFYTLGERDRRDIYLNVVMEYVPDTLHRCCRNYYRRQVAPPPILIKVFLFQLIRSIGCLHLPSVNVCHRDIKPHNVLVNEADGTLKLCDFGSAKKLSPSEPNVAYICSRYYRAPELIFGNQHYTTAVDIWSVGCIFAEMMLGEPIFRGDNSAGQLHEIVRVLGCPSREVLRKLNPSHTDVDLYNSKGIPWSNVFSDHSLKDAKEAYDLLSALLQYLPEERMKPYEALCHPYFDELHDPATKLPNNKDLPEDLFRFLPNEIEVMSEAQKAKLVRK | soluble
MGSDKIHHHHHHMYKRNERLNLIRKRVDQYGQVAVKDLAIFLQVTPETVRKDLETLENDKLITRTHGGAIQYNHINKEKSYANKWQKQSQVKERIAKKAALQIKSGEIIVIDGGTTTGRIPQYLNDITQTTIVTNSLKIADELNRAIEEQRIQAEVIMLAGKTNTEQDVVRGHMTNELLQRFKFDKAFISCGSFDTSDCYEFDLEEAHASHIMIQKSQLSYLLADSSKRDAHASYRIDGFSEIDYMISDYAKPQNIEYFNQKHWLQI | not soluble
MSLNGQNTISDIGDATEDQIKDVIQIMNDNIDKFLERQERVSLLVDKTSQLNSSSNKFRRKAVNIKEIMWWQKVKNITLLTFTIILEGHHHHHH | not soluble
MAHHHHHHMLEGPNAEEAKKAILECDGIFVPGGFGKRGVDGKCAAVALARHHNIPYFGVCLGMQVALIQVCREELGWKDANSEEFDPSSTHQIVRIMDCDRHSMGANMHLGARNVHLVEKNSIMSTIYSGADFVVERHRHRYEVNTTYLGQLRGAGVLISGVSDPTFGPHTRVEAIEIPSLRFFLAVQFHPEFVSSPMDPSPPYLAFMAAASKKEYKWPESCAARRVKTL | not soluble
MSYPLFDKDEHWHKPEQAFLTDDHRTILRFAVEALMSGKGAVLVTLVEIRGGAARPLGAQMVVREDGRYCGFVSGGCVEAAAAFEALEMMGSGRDREIRYGEGSPWFDIVLPCGGGITLTLHKLRSAQPLLAVLNRLEQRKPVGLRYDPQAQSLVCLPTQTRTGWNLNGFEVGFRPCVRLMIYGRSLEAQATASLAAATGYDSHIFDLFPASASAQIDTDTAVILLCHDLNRELPVLQAAREAKPFYLGALGSYRTHTLRLQKLHELGWSREETTQIRAPVGIFPKARDAHTLALSVLAEVASVRLHQEEDSCLPPSS | not soluble
MPSKLFSRRSFVTTACAGLAALALPLPAVALTEARAASLVNEVVTEINRVIASGKSENAMIRDFEKLFVRYGDVPIMARYALGPDARTASPAQLKSFTQAFQGYISRKYGKRFREFIGGEVTVKTARKIKAGYEVKTSVKLQGQAPFDVTFLVSDKSGKDKFFNMFIEGVNLLLTERTEIGSMLDRRKGDLNALIRDLASAGLEHHHHHH | soluble
MTASSQAPLKYLQAYPQALQDQVHQLIAQDRLADYLQQRYPAGHQIQSDKALYAYALALKQDHLRNAPAIKKVLFDNRLDLTHRALGLHTKISRVQGGKLKASNEIRVAALFKEAPAEFLKMIVVHELAHFRESDHNKAFYQLCEHMLPGYHQLEFDLRVYLTYNELRASSGKFLEHHHHHH | soluble
MQINKDELIKMGNHLKEARLSKQLTQEELARLSNISQATIVKYENGLRSISKKNDRILSDVLGAESFIKDMIQRKQQVLIDLEKYQTKNIFSREDLSKKLGIEISLLNKFLNQSRPLSKNAIVKITQLLSNEGKEILMDIKQEDGSFKLPIIDKIAMGKRIQEIRKNRGETLEKFGKNFTRPAGKNVVNRWEKGTNIPDIERLMNVAYLGKVAVPYILYGETFSKMLKKGSRISKFEKLDSFRMGLRLRKIRRDYRLEREDFGKFFSPPITKWSMDKYENGKDIPNTDRIIQYAYIGKVSLNFLIYGVN | not soluble
DGRITGMIQVAIDVTEQVVARKKLEESESRFRALVNASSDVVYRMNADWTVMRELEGRDFLTPAGTAMADWVETYTYREDRALVKATAAAAIEGKRIFELEHRVLKADGTIGWTFSRAIPILDEQ | not soluble
MGGSHHHHHHGMASALTDQTYCDRLVQDTPFLTGHGRLSEQQVDRIILQLNRYYPQILTNKEAEKFRNPKASLRVRLCDLLSHLQRSGERDCQEFYRALYIHAQPLHSRLPSRHALQNSDCTELDSGSQSGELSNRGPMSFLAGLGLAVGLALLLYCYPPDPKGLPGTRRVLGFSPVIIDRHVSRYLLAFLADDLGGL | not soluble
MEEKKDFYDTDELRDFMALVEKTNDIKKIALFRILAFTGIRKGELLALEWKDYRKSTLDINKAISHSPVGYEILPPKANSNRLLSLDEKTCKILDELHQTYPESTRIFESENGGMLSPSKPRKWLLEITKEKEIEPIRIHAFRHTHASLLFESGMSLKQVQYRLGHADLKTTMNIYTHITKLEHHHHHH | soluble
MIIDIHGHYTTAPKALEDWRNRQIAGIKDPSVMPKVSELKISDDELQASIIENQLKKMQERGSDLTVFSPRASFMAHHIGDFNVSSTWAAICNELCYRVSQLFPDNFIGAAMLPQSPGVDPKTCIPELEKCVKEYGFVAINLNPDPSGGHWTSPPLTDRIWYPIYEKMVELEIPAMIHVSTSCNTCFHTTGAHYLNADTTAFMQCVAGDLFKDFPELKFVIPHGGGAVPYHWGRFRGLAQEMKKPLLEDHVLNNIFFDTCVYHQPGIDLLNTVIPVDNVLFASEMIGAVRGIDPRTGFYYDDTKRYIEASTILTPEEKQQIYEGNARRVYPRLDAALKAKGKLEHHHHHH | soluble
AIAASGKRKGLSFDDKKTRLLELFNETCDFYTLKELEKIAPKLKGIITQSVKDVLQSLVDDDLVNSDKCGVQTIYWCLPSEAVAKRQRRLDALQQQLAEKRQKLTALQRQLVQVQAGREDSVERTAVLERLAACEAAWRERQRTLESYLECDPDVLAQRETETKTLIEQANRWTDNLYVIRSYVQRNLGVDLDLFDQQFELKPALQYLE | soluble
MGSDKIHHHHHHMSWPLDDETASPHFSIRCLEEPMLINADFSRRAIVTPHEYQWVASPQGGVERVMLDRVGAEKARATSIVRYAPGSHFPRHQHPAGEEILVLSGTFSDEGGHYPAGWYLRNPPGSCHQPSSREGAMIFVKLRQMPLHEARRVRVDTRDPAAWRRQNGREVCPLFADDAEQVCLHRMAPNDALVAAQGDGAELLVLTGAVVAEGEIYGRGSWIRVPADDSLHVVAASQGATVYLKTGLPVAIGAEV | not soluble
MGSDKIHHHHHHMTSTVFAQSDDFTTWTKFKVNYKIDPRFSLLSNLEFRTKDDVSRMDRLGLAIGGEYRAYSFLKLEAGYETHFRNLGDSEWKFRHRYNFGATASFQYQWLKIALRERFQQTFDRGDSKARLRSRLKLAYAPEKGIVSPYFSIEIYQSLDDAPFWRADRMRYRPGVEIALAKRWALDIFYCYQYESPKGKHIAGVEIGYSF | not soluble
MSASVSDPYEQMPAAPTDDDLEDKPEADKKALLNQVFKSLKRAQDLFYHDYAQPPPMPEENDSLIRSMKRKHEYGNVIKKVEEMKVRRENEMLALPTSQPMHGTGSVIASAGTPLAITDGSGKLVNQQQGSAKSGTLLPLVPLGNSSKGEDNTTRSLLPSKAPMMMKPKWHAPWKLYRVASGHTGWVRAVDVEPGNQWFASGGADRIIKIWDLASGQLKLSLTGHISSVRAVKVSPRHPFLFSGGEDKQVKCWDLEYNKVIRHYHGHLSAVQALSVHPSLDVLVTCARDSTARVWDMRTKAQVHCFAGHTNTVADVVCQSVDPQVITASHDATVRLWDLAAGRSMCTLTHHKKSVRALTIHPRLNMFASASPDNIKQWKLPKGEFMQNLSGHNAIINTLSSNDDGVVVSGADNGSLCFWDWRSGFCFQKIQTKPQPGSIESEAGIYASCFDKTGLRLITAEADKTIKMYKEDDEATEESHPIVWRPEIVKKKAY | not soluble
KNAELSIKLNKEEYQANEDIEIQITAPYTGSGLITIERDKVYAVHWFKTEAQNSVQTIRIPADFQGNGYVNVAFIRDWESPELFISPLSYSVAPFNVNHDKHDIKIGLKTPELARPGESFTIDYHTDKPGKIIVFAVDEGILQVANY | not soluble
MGFFDSGIGGMTVLYEAIKVLPYEDYIFYADTLNVPYGEKSKGKVKEYIFNAAEFLASQNIKALVIACNTATSIAIEDLRRNFDFPIIGIEPAVKPAINKCTEERKRVLVVATNLTLKEEKFHNLVKEIDHHDLVDCLALPGLVEFAENFDFSEDKIIKYLKNELSSFDLKQYGTIVLGCTHFPFFKNSFEKLFGIKVDMISGSVGTAKQLKKVLADRNQLGKGSGSITFFNSGHKIVDQEVISKYKRLFEILDETQRSHVGH | not soluble
LTEKQKRFADEYIKCGNATEAARLAGYSSKTANRIATENLSKPVIKGYIDKVLSELEEKRVMGYTEAMQLFTEIARGEMEEEVIVSNGDGFSVVTKSADINQRVSALKEIVKRHVAGGRDKLQEELIQAQIDKLRADT | not soluble
MGSDKIHHHHHHGKKDKEKIIDDFKVAVVTQPLSENKVQYNMVEEMAKEYEEENKIDKDKDGQTKVKQTIKHVVLPENFTSNIDSAINKIVKLADDKEVQAIVVSTDQAGLLPALQKVKEKRPEIITISAPMGDDKNQLSQFVDVNLGVSAEERGKVLAERSKEMGAKAFIHYASTDDLKDVNIAKRLEMIKETCKNIGLPFVQVNTPNINTEEDKNKVKQFLNEDIEKQVKKYGKDINVFGVNEYMDEVILTKALELKYIVAEQSNPSPIQTYPSVMGLKISEKDAQNYDKINDMISEKAKAFGMSNRLGGYPMPMDAFLPSLAIYLATEMVKQDLTQEDVCDPDYLEAFTELRFGIGSEFTPLTEVLYNYQSVILSQLIY | not soluble
LQIFSKEGLLIQEYGEKKRIPVTYDEIPPTLIHALIATEDQRFFEHPGVDVMGLGRAAVSMLKTGTKSQGGSTITMQVARNFFLSRKKTFLRKFNEIMLAIKIDRELSKEKILELYLNRVYLGNRAYGVGAAAMVYFGKSLKDLNLAELAMIAGLPQAPSTQNPIANP | not soluble
